We go through 18 sequences from a protein production outcome set (Wang et al. 2014).

The nature of this data set: label from the status in PepcDB records.

In the case of “MSDVPHLRFPEFSGEWEEHTLSEYLEFKNGLNPDAKRIGSGLPFISVMDILSEGVINYDNIRGKVNATEKEIECFGVKDGDLLFQRSSETLEDVGRANVYMDNRTAIYGGFVIRGRKIGNYDPLFFKYLLATPLARKRTCRMGAGAQHFNIGQEGLSKISLYFPSIEEQRKIAEFLSLIDERIATQNKIIEDLKKLKSAISLNVLHSDKWEQFKIKDIAQIGRGRVISSIEIGQQKSPTYPVYSSQTSNDGIMGYLDDYMFEGEYISWTTDGANAGTVFYRNGKFNCTNVCGLLKLRKEFDTHFVSLVLAEATKKYVSINLANPKLMNNTMGNIQIRLPKLEEQKRISIVFRVLQRLWTVHNSLLTEYTKQEQYLLSQMFILEHHHHHH”, the protein production result was “failed”.

“MSDWTDGYVAEIDYTHGFYRELTPAHLRFCLLSRGLRAPEEDAGVSYCELGFGQGVTLNIVAATHPLASVWGTDFNPSHAAAARQLSLDGGTANTAFGDDSFEEFLAREDLPTFDFIVLHGIYSWISAENRAVIGRFLRRRLKVGGVVYISYNTLPGWAAIMPLRALMIDHAKAERAGMTERVDKALAFARTLAEGKAGYFTANPAVAPRLEKMATMSRNYLAHEYFNRDWTPLYHADVVRELTAAKLSFAASAHVTDLIDVVALSAPGREMLAAVNDPLFRETLRDYIVNQQFRRDIFTRGALRLTPLEQIEGLRAQRLALIVPRATIPEKATFPIGTTDLKPEIYGPFFDRLDKGPITLADLAAAEPALAPLPLATLHQAALVAISQGWVAPCPEAAGEGARRKATKRFNAAVLERARRSADLTVLASPVLGGGLGVDRIQQLFLLARAEKHPDPASFVWGILSSQGQRLVKEGKPLEDVDQNMAELRLRAQTFTDSFLPLYDRLGIV”: the protein production entry is “failed”.

Regarding “MSEAIVTIVVVPRERFSCTQASLESIYEHTKIPFKLIYVDGNSPTKVRKYLQKQAQEKNFQLIRTDYYLSPNHARNIGLSHVDTKYLVFLDNDVIVSPGWLQALVNCAETTGATVVGPLMCEKEPIHERIHFAGGESHIVIDVKGRRHLREKMYKQGHQVSELRSQLQQTETELAEFHCTLIRREIFEQIGYLDEEMLNTKEHLDFCMNVIQAGGKVYFEPDSLVTYVPGPPLEWSDLHFYMLRWSDAWTLASLQRIRAKWNLSEDGYFQTKYKKLGVRRVATIIKPFVRQVSFGNENKPLKRFLKNLDRKLNRFLTDRYTEMLPQRKLELPIIKKEISSVKEFTQV”, the protein production result is given as “failed”.

Regarding “MSEDELYELLKTKYGFDEFRPGQLAVIQKLLAGQDVLAVLPTGTGKSLIYQLVGTALPGLVVVVSPLISLMQDQVARLNYQGEKQVAALTSQLDYGARQYLLNHLGQLKFLFISPEMLGQDIIQTALMQVQLALLVIDEAHCISTWGPDFRPDYRRLGQIRQRLQAPTTLMLTATATQRVRQDILTQLTVPDAQQILYSVNRPNIYLAVEQVNDEASKRATLQHLVTSARGPVIVYFTSKRQTDLIAEWLRTTTTLRVAAYHAGLATDDRFKIQQQFMAGQLDVICATSAFGMGINKADIRLVIHYHLPTTLADYVQEIGRAGRDGQQAMAIMLYAPGDENLVRNLNELTAATPNEIQQDYSRYQAQQPPTDDRSKVLQSYWLQGTPPTTVATIFADRQVAKERELRTLMSYVQTTTCHRTVMLTYFGEPAVTHTDQCCQLAAEPLPLAALGLMATHDEPTATIMSWDQHLAQLFLPNS”, the protein production result was “failed”.

Regarding “MSEDLMDLSPEEGIERFLRHREPSVRESTMRNAKTRLRFFNEWCEERDIENLNNLTGRDLADFVAWRRGDIAALTLQKQLSTIREALRYWADIEGVDDGLAEKVHAPELPDGAESREVHLSADRAHQILDFLHDYRYASRDHVVFLILWKTAMRRSALRSLDVDDLRPDDYALVLEHRIDEGTKLKNGEDGERWVYLGPSDYQVVDDYLDNPDRYERTDDYGRKPLITSQHGRPAGDTIYKWVNKLTQPCVLNGCPHDADPSDPSTCEALGSRAAHSKCPSSRSPHGLRRGSITYHLNSDVSPEIVSERCDVSLEVLYEHYDVRTNQEKMAVRKKQLERI”, the protein production result is “failed”.

With “MSEDNFDDEFDGSLPSGPRHPMARRFRGYLPVVVDVETGGFNSATDALLEIAATTVGMDEKGFLFPEHTYFFRIEPFEGANIEPAALEFTGIKLDHPLRMAVQEEAALTEIFRGIRKALKANGCKRAILVGHNSSFDLGFLNAAVARTGIKRNPFHPFSSFDTATLAGLAYGQTVLAKACQAAGMEFDNREAHSARYDTEKTAELFCGIVNRWKEMGGWMDDDD”, the protein production entry is reported as “not failed”.

As for “MSEDRTGHQGISGPATRAIHAGYRPDPATGAVNVPIYASSTFAQDGVGGLRGGFEYARTGNPTRAALEASLAAVEEGAFARAFSSGMAATDCALRAMLRPGDHVVIPDDAYGGTFRLIDKVFTRWDVQYTPVRLADLDAVGAAITPRTRLIWVETPTNPLLSIADITAIAELGTDRSAKVLVDNTFASPALQQPLRLGADVVLHSTTKYIGGHSDVVGGALVTNDEELDEEFAFLQNGAGAVPGPFDAYLTMRGLKTLVLRMQRHSENACAVAEFLADHPSVSSVLYPGLPSHPGHEIAARQMRGFGGMVSVRMRAGRRAAQDLCAKTRVFILAESLGGVESLIEHPSAMTHASTAGSQLEVPDDLVRLSVGIEDIADLLGDLEQALG”, the protein production result was “not failed”.

In the case of “MSEFEGWIKWLEPVFLLWKPEDPGYERPAYRDWTKEEDEPKYSPEKELALLDKQILASDGFDIDFTHFRCVFNYHLAYLDSHEFVDEPETTRDLLERLSRKALDDYNQESVVKANFHFCCAIMFLITFEVVDPYDNLIKLFQTRVRHAEDIVTEYVFCRPKPNQGVECIGVKNNDGKDVQTNVKEQEIPCMYGWFLRVITITFTLQIGVGASICHKE”, the protein production entry was “failed”.

As for “MSEFIMNNLEQTARRWLEERGVTVEKIAELVYYLQSKYHPDLTMEECIENVNRVISKREVQNAILTGIQLDKLAEDGRLDEPLQSIIRRDEGLYGVDEILALSIVNVYGSIGFTNYGYIDKQKPGILQYLNDKSTGKCNTFLDDIVGAIAAAASSRLAHRAANAE”, the protein production entry is “not failed”.

Take “MSEFMQRFADLRDRKAYAEIVDALPYVKLMGTSMAEDEQGELRFELPFLQRNVGNTTLPALHGGLIGGFMESAAMIHLMWNRESLEAPKIVDFSLDYLRPGRPQTLFAQCEITKQGKRVAHVLIEAWQDDRSKPVAVARAHFLLTNLEHHHHHH”: the protein production entry was “not failed”.

Take “MSEFRLTQISDTHLGRRFPGLIANFHRVCEHIDADRPDLVINTGDVSFDGPTSRDDVVFAKGLHDALPVTCRYLPGNHDIGDNPTAIGPAPKPPVSEAYRQQFRDIIGEDHWSFEAAGWCFIGLNTLVMNSGLAFEAAQFDWLTQEIARTNGRPVALFLHKPVFLNLPDDPETPETSIRYVPQPARARLIEMFARVDLRLIASGHVHQRRDFTFRHTRHVWAPSVGFKINDQRQDRIAIKETGLVEYRFRGDSLEVRHLRAAGQIDIDIEEVLLQMGGEH”: the protein production result is on record as “failed”.

Turning to “MSEFTRVFNYKIKLIIAISLFFTQLISANASVEVNISVEQPEHHLANVELKFEQVNESKVNFYLPTWRTGRYETLNLANGIREFIAQDSQGNVLSWHKIDKNTWQVSDAKNKKITLTYQVYANQLAKRTRHIDDSHAFLDSSAVVMYSQASRSSEHIVQLSVPKLWKSFSGLESGNNSHQFIAHDYDQLVDSPIESGINEHYQFSVDNRQYELVIWGEGNYDSAKMVKDLQILVKQSKHVWQGYPFKRYVFMVHATSGARGATEHVNSTIIQRSRFKFSTRKDYLSFIAVAAHEFVHTWNVKQYRPKGIVPYDYQQENYSNLLWLVEGSTSYLQYQLLLRGNLMTTDEFFTALAKRITAHAHKPGKESQSVAQASFDAWISEGGDYGNNHSVNIYSEGFLASWLLDFDILAKTALSKSYRNAHNQLYQQHRLPKGYDEQDVLSILEQITGDDYQVWWQKNIQGTTKINFNRLLAKAGLKMSYAKNVKDKSSEQSKVWTGLKTKLDNHDLIVSSVEKNSPAWDAGLTTEDVIVAIDGLRLLDNELDNRLKDFKPKQTITVTYFRRDKLITSRLKLAAIPKNKLKIIPIAKASVEQKAFFKAWMGVDFPEKK”, the protein production result was “failed”.

For “MSEHFLQQKYNSISENPIYLFWFLQFCFWSFVSLISLVSLTLWYVQIDVAHLNHTFLQSFVGVVFSLPLYWAFMRCWNTSIFIRVFVSITSVLLISFIWTVIRVELYIRLTGTDEIWTQFGGWYFSSIFIYFCWTGFFHGIRYYQLLQFEHEIMLKKEAEAKTEQLKRLSAQTVARDAKIKMLRYQLNPHFLCNTLNAINSLIECELPEKAQLMTVQLSKFLRYSLDNDPDTKIALEFELKALELYLEIEKTRFGERLQLDFQISEAAKAAFIPSLLLQPLIENSMKHVIAQNEEGGVISLSADVIDNMLVLELSDTGSAKRVDINKIKSKTGRGVGLRNIDERLKALYTDNYVYNLNVRPSGGLKTTIKLPLDSQGEPDIVNQAYNSMKVC”, the protein production result is on record as “failed”.

For the sequence “MSEKPWVSTQPLVTKRGLPLNIDRDIAYRPASAVSLSEVAQFITRETGLPVVVAPDALNPSILSSRPGNSGAAAAPPAVTMSNPDNLAALMPTGLAGSLPSGARSLESELLSGTPGLISGIKFSGPVSALLNQVTSRLGLSWHYDPQLQGARITYFDTRTFDVWAFGDDQVIESVVKSGLITSTGSGSNGSGGTSSGTGASGDSGSNQSTTVQIKTSLLSDIENNVKAMLSTQPAGRIFLSRSTGTLTVSDRPEVLNRIASYLQSTNRNITRQVLFNVKIFEVNFTDRDQTAVNWKAVYKSVSGRWGLSLANKVAGISTDAISGSVSILDTSSSPWAGSSAVIQALSEQGRISDVRSPSITTLNLQPAPIQIGNVKSYVASSSTTTTASVGSSTSLTPATITSGFNMMLLPKIIDRDNMLLMISISMSSKPTFTTFTSNGSSVQTADFDTKNAAPKVLLRSGQTLVLTGFEENTENADKTGVGDASFFGLGGSRTRSSLEHHHHHH”, the protein production entry was “failed”.

On to “MSELARIVPDSEKISHILIEQGRKITFYSYFSNTFVLGIIAYILVDNTVALDKNSLFFVKTLPFRKKDISLSFMLFKFVIMILLYELVMIISTPAIKLVTTVPIEYVIFFIVQHLFYLVVIGVIEFIHCLFTFFLKRRVKQINSLKVIGDSLLMIFATFYFFDFRYGLELFLANQLWSISYMIPITFFLIVVCLMLISIGLLRLISILENQMSQHSKYIYIPFLNKVIFRYKANWYFISFTTVVMLVIFFQSGLRTMLFILTTVMAFSGVLLLSYGDITADFRKQYDLLRIKIRNEWLSQLLLVIMLAMPLLLLCFWGFGELAQLITALSLSLVAIILGYVFPKSQGSLNETTSLLLLFIVFVLVSLLTNRSFGWLILIVLVLLHLLVIKKVRNEKE”, for which the protein production result is given as “failed”.

In the case of “MSELDVEAVDDINAPAGIDAAEYVLYGGKGGVGKTTCAAATALASARDDTATLVVSTDPAHSLSDTLDADIPATPTRIREDIPLYAAEIDPEAAVGEGPLGVEEDALGGVGELLGGDGMFGGGAGGAAGAGQAEDPIGGEEGLLGGSMPGADEAAALRLLLDYVDDDRFDRVVIDTAPTGHTLRLLELPETMDSMVGKILQLRERFSGMMDNLTGMFGDDQDVDAEAGIEDLQELSDRIEHLRGILQDPQRTDFRIVMVPEELSVVESERLLAQLGEFNIPVSTVVVNRVMQDPSEVLGEDVDIAGPNHADCEFCARRWQVQQDALARSQDMFRGHDVRRVPLFAEEVRGERLLSVVAACLD”, the protein production result is listed as “failed”.

With “MSELGNRAKDQKKIYQRWAPVYDRVYRGILRDGHRKLAGLAAAAGTDILEIGTGTGLTLAHYPSRCRVTGIDISEHMIARAREKVRRENLRHVRALEVMDAHVLRFADKSFDVVCLPFVITLIPEPERALDECARVLRPGGEIILASKLGDGAGLQGAIEAAVAPLVRHIGWSSAFRIHRIVAWAERRGDFSTAEILPVFPNGFFKIVRLKQRGFSA”, the protein production entry is “failed”.

Consider “MSELIKHSSNFLAAISPDNDCSITATNDFEAMMSWLNGYKKKPINTSRNYAREVKRYLIWLSCQGLTLAQVKIEDVYEYFNLLERPTTEWIIPDKKTDKIYPTQLIKYGGLSNRSINYTHTVLGLFYSFLQDAGYLTKNPINLEHHHHHH”, for which the protein production result was “failed”.
